# B1: HPV16 E7 TCR: HPV16 E7 specific TCR (WO2015/184228), SEQ ID NO:90; control transduced alone into T cells (protein)
# chain: MAPGLLCWALLCLLGAGLVDAGVTQSPTHLIKTRGQQVTLRCSPKSGHDTVSWYQQALGQGPQFIFQYYEEEERQRGNFPDRFSGHQFPNYSSELNVNALLLGDSALYLCASSLGWRGGRYNEQFFGPGTRLTVLEDLRNVTPPKVSLFEPSKAEIANKQKATLVCLARGFFPDHVELSWWVNGKEVHSGVCTDPQAYKESNYSYCLSSRLRVSATFWHNPRNHFRCQVQFHGLSEEDKWPEGSPKPVTQNISAEAWGRADCGITSASYQQGVLSATILYEILLGKATLYAVLVSTLVVMAMVKRKNSRAKRSGSGATNFSLLKQAGDVEENPGPMWGVFLLYVSMKMGGTTGQNIDQPTEMTATEGAIVQINCTYQTSGFNGLFWYQQHAGEAPTFLSYNVLDGLEEKGRFSSFLSRSKGYSYLLLKELQMKDSASYLCASVDGNNRLAFGKGNQVVVIPNIQNPEPAVYQLKDPRSQDSTLCLFTDFDSQINVPKTMESGTFITDKCVLDMKAMDSKSNGAIAWSNQTSFTCQDIFKETNATYPSSDVPCDATLTEKSFETDMNLNFQNLLVIVLRILLLKVAGFNLLMTLRLWSS
# modifications: HPV16 E7 TCRbeta chain-P2A-TCRalpha chain
# notes: control transduced alone into T cells
# Key:
# [1] = tested on: phosphatidylserine-coated beads; assay: Phagocytic uptake of phosphatidylserine-coated latex beads; format: cell-based, human; settings: 30 minutes incubation, transduced CD8+ T cells
# From the text: Streptavidin coated latex beads were bound with biotin-phosphatidylserine and used for phagocytosis assays.
# [2] = tested on: HPV+ SCC152 head and neck cancer cells; assay: FACS phagocytosis assay with pHrodo-labeled SCC152 cells; format: cell-based, human; settings: CellTrace-violet labeled T cells, compared with mock transduced T cells
# Procedure: CellTrace-violet labeled mock transduced, HPV E7-TCR transduced T cells, and HPV E7-TCR/CER29 tandem expression cassette transduced T cells were co-cultured pHrodo-red labeled HPV+SCC152 head and neck cancer cells.
# The ability of CER modified-T cells to engulf target cells and recapitulate engulfment-signaling events was evaluated in co-culture assays. T cells were transduced with a nucleic acid encoding HPV E7 specific TCR (polypeptide sequence comprising SEQ ID NO:158) or tandem expression cassette encoding HPV E7 specific TCR+ CER29 (polypeptide sequence comprising SEQ ID NO:169). pHrodo-labeled HPV+ SCC152 head and neck cancer cells were co-incubated with mock transduced T cells, HPV E7 TCR transduced T cells, or HPV E7 TCR/CER29-transduced T cells.
molecule,measurement,setting,value
B1,uptake of phosphatidylserine-coated latex beads,[1],do not exhibit uptake of latex beads coated with phosphatidylserine
same,phagocytosis of pHrodo-labeled SCC152 cells by FACS,[2],no difference in phagocytosis between mock-transduced T cells and E7 TCR transduced T cells

# Source: patent US20210024607A1, “EXPRESSION VECTORS FOR CHIMERIC ENGULFMENT RECEPTORS, GENETICALLY MODIFIED HOST CELLS, AND USES THEREOF” (CERo Therapeutics, Inc., priority 2018, published 2021)
